Assay [1] concerns the target DENV-IV抗原(一种NS1蛋白，购自菲鹏) (dengue virus serotype 4 (DENV-IV)) (UniProt P09866).
Assay [2] addresses DENV抗原 (DENV阳性血清) (dengue virus (DENV), serotype not stated). As to the kind of experiment: sandwich ELISA, antibody at 12.5 ng/ml captured on goat anti-mouse IgG, DENV-positive serum, HRP-labelled DENV mAb.
Assay [3] shares this target. Put plainly: sandwich ELISA, antibody at 6.25 ng/ml captured on goat anti-mouse IgG, DENV-positive serum, HRP-labelled DENV mAb.
The target is the same in assay [4]. Put plainly: sandwich ELISA, antibody at 3.125 ng/ml captured on goat anti-mouse IgG, DENV-positive serum, HRP-labelled DENV mAb.
The target is the same in assay [5]. As to the kind of experiment: sandwich ELISA, antibody at 1.5625 ng/ml captured on goat anti-mouse IgG, DENV-positive serum, HRP-labelled DENV mAb.
The target is the same in assay [6]. As to the kind of experiment: sandwich ELISA, antibody at 0.78125 ng/ml captured on goat anti-mouse IgG, DENV-positive serum, HRP-labelled DENV mAb.
Assay [7] shares this target. Put plainly: sandwich ELISA, antibody at 0 ng/ml (blank without antibody), goat anti-mouse IgG, DENV-positive serum, HRP-labelled DENV mAb.

Sequence of UniProt P09866 (P09866 775-1126 limits assumed): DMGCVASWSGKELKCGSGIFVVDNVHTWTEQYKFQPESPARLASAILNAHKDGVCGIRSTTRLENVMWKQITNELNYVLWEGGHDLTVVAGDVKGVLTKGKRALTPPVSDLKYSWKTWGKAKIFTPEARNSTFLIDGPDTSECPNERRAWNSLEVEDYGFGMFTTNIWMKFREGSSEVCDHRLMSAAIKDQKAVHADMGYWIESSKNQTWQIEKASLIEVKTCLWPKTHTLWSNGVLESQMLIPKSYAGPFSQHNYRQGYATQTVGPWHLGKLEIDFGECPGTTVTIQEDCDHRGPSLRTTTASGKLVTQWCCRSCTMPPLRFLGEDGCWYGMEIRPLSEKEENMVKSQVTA

In assay [1], 对照抗体 (antibody) had a Kd of 811 nM. For the same substance, in assay [1], the koff is 0.0019 s⁻¹. The substance further yielded a kon in assay [1] of 2340 M⁻¹ s⁻¹. In addition, the OD (450nm, 参考630nm) turned out to be 1.54 OD in assay [2]; 0.996 OD in assay [3]; 0.692 OD in assay [4]; 0.48 OD in assay [5]; 0.317 OD in assay [6]; 0.045 OD in assay [7].

These data come from patent CN116082499A.
